Like-named read-outs stand apart in the source and are kept apart here.

Results on one protein are retold here after publication PMC7292962 (Biochemistry, 2019).

Common to all, as to experiment: AUC
Data set [1] deals with the molecule itself.
Data set [2] deals with the molecule itself. This is another data set of the same source.
Data set [3] concerns the molecule itself. This is another data set of the same source.
Data set [4] deals with the molecule itself. This is another data set of the same source.

B1: S100A12 (natural protein, human)
chain: TKLEEHLEGIVNIFHQYSVRKGHFDTLSKGELKQLLTKELANTIKNIKDKAVIDEIFQGLDANQDEQVDFQEFISLVAIALKAAHYHTHKE
Take B1: in “AUC [1]”, the stoichiometry N (as a rule, a count of units in the complex or per binding partner) amounted to 2. For the same protein, the Kd (usually the constant that tells how readily two partners part at equilibrium) was 4590 µM in the data set “AUC [2]”, 56.7 µM in the data set “AUC [3]” and 13.2 µM in the data set “AUC [4]”.
